# Experimental data from US20020039776.
# Test system: free histones (mixture of H1, H3, H2B, H2A and H4; Boehringer Mannheim)
# Sequence of GST-EZH2(382-747) (chain, as listed by the source): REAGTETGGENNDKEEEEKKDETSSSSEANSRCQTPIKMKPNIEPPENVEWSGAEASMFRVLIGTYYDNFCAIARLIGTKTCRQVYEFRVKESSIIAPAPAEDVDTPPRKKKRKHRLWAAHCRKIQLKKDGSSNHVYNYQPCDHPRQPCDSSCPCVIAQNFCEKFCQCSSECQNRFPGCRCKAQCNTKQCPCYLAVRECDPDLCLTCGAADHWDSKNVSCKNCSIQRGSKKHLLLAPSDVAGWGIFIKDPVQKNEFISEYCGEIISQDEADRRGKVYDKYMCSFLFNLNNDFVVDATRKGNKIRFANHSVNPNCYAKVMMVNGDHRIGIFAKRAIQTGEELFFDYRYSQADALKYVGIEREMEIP
row,Substance,HMTase activity
1,GST-EZH2(382-747),had undetectable HMTase activity towards free histones
2,GST-HRX(3643-3969),had undetectable HMTase activity towards free histones
3,GST-Suv39h2(157-477),"The SU(VAR)3-9 family members assayed, SUV39H1, Suv39h2 and CLR4, displayed HMTase activity."
